In patent US11840557B2, “Wnt7 variants capable of activating g-protein coupled receptor (Gpr)124/Reck/frizzled/lipoprotein receptor-related protein (LRP)-mediated Wnt signaling” (UNIVERSITÉ LIBRE DE BRUXELLES, priority 2018, dated 2023):

Key:
Assay type in all cases: in vivo, Danio rerio
zebrafish zygote = conditions: injection in zygote, 3 dpf larvae
Description: (§1) The following splice-blocking morpholino (MOs) (GeneTools, Eugene, OR) were injected into embryos at the one-cell stage: wnt7aa ([…], 6 ng) (SEQ ID NO.: 123). Synthetic mRNAs were transcribed from pCS2 plasmids after NotI digestion using the mMessage mMachine SP6 Kit (Ambion, Carlsbad, CA) and injected into one-cell stage zebrafish embryo. For Xenopus laevis microinjection, 15 pg of wnt7a or wnt7a^K190A or wnt7a^1-278 mRNA were injected into one ventral blastomere of the four-cell stage embryo.
(§2) zebrafish embryos were imaged with an LSM710 confocal microscope and images were processed in ImageJ. Images of zebrafish development phenotypes were taken on Leica M165 FC. Xenopus larvae were imaged with an Olympus SZX16.

wnt7aa morphants = test: Trunk DRG rescue in wnt7aa morphant zebrafish larvae; conditions: 100 pg mRNA injection, 72 hpf
Description: Zebrafish (Danio rerio) were raised and handled under standard conditions following the rules of the State of Belgium (protocol approval number: CEBEA-IBMM-2017-22:65). The following line was used: Tg(−17.0neurog1:EGFP)^w61 (McGraw et al., J. Neurosci 28(47):12558-69 (2008)).
as §1, §2

[1] = system: Wnt7aa^−/− mutant zebrafish; test: Transgenic endothelial expression (kdrl promoter) in Wnt7aa−/− zebrafish: hindbrain CtAs and GLUT1 staining; conditions: 60 hpf embryos
Text: (A) Dorsal views of the cerebral vasculatures of 60 hpf WT or Wnt7aa^−/− Tg(kdrl:EGFP) embryos. In Wnt7a^−/− mutants, the intracerebral CtAs are lacking. Wnt7, Wnt7a^K190A or Wnt7a^1-278 were transiently expressed in the endothelium of Wnt7aa^−/− embryos under the control of an endothelial-specific kdrl (Vascular endothelial growth factor receptor kdr-like) promoter. The Wnt7 ligands were expressed as a biscistronic construct with BFP (Blue Fluorescent Protein) used as transgenesis marker. In contrast to uninjected embryos, Wnt7, Wnt7a^K190A or Wnt7a^1-278 restore hindbrain CtAs formation in Wnt7aa^−/− mutants as quantified in (B). (C) Anti-GLUT1 staining of the CtAs after transgenic expression of Wnt7, Wnt7a^K190A and Wnt7a^1-278 in 60 hpf Wnt7aa^−/− embryos. Transgenic expression was achieved as in (A).
Mouse Wnt7, Wnt7a^K190A and Wnt7a^1-278 were transiently expressed in the endothelium of Wnt7aa^−/− embryos under the control of an endothelial-specific kdrl (Vascular endothelial growth factor receptor kdr-like) promoter. The Wnt7 ligands were expressed as a biscistronic construct with BFP (Blue Fluorescent Protein) as transgenesis marker.

B1: Wnt7a^1-278: the N-terminal domain of Wnt7a, single domain truncated variant (protein)
chain: LGASIICNKIPGLAPRQRAICQSRPDAIIVIGEGSQMGLDECQFQFRNGRWNCSALGERTVFGKELKVGSREAAFTYAIIAAGVAHAITAACTQGNLSDCGCDKEKQGQYHRDEGWKWGGCSADIRYGIGFAKVFVDAREIKQNARTLMNLHNNEAGRKILEENMKLECKCHGVSGSCTTKTCWTTLPQFRELGYVLKDKYNEAVHVEPVRASRNKRPTFLKIKKPLSYRKPMDTDLVYIEKSPNYC
modifications: left off: small tags and cut ends
notes: the N-terminal domain of Wnt7a, single domain truncated variant
mRNA dose well tolerated without posteriorizing or gross anatomical alterations (zebrafish zygote): up to 1 ng
DRG rescue (wnt7aa morphants): significant DRG rescues
blood-brain barrier (GLUT1 expression) ([1]; anti-GLUT1 staining of CtAs): restored blood-brain barrier
brain angiogenesis / hindbrain CtAs formation ([1]; transient endothelial expression): triggered GPR124/RECK-dependent brain angiogenesis
